According to paper PMC6093707, “Single-particle cryo-EM structure of a voltage-activated potassium channel in lipid nanodiscs” (eLife, 2018):

B1: Kv1.2–2.1 paddle chimera channel, α subunit (other)
chain: MTVATGDPVDEAAAHPGHPQDTYDPEADHECCERVVINISGLRFETQLKTLAQFPETLLGDPKKRMRYFDPLRNEYFFDRNRPSFDAILYYYQSGGRLRRPVNVPLDIFSEEIRFYELGEEAMEMFREDEGYIKEEERPLPENEFQRQVWLLFEYPESSGPARIIAIVSVMVILISIVSFCLETLPIFRDENEDMHGGGVTFHTYSQSTIGYQQSTSFTDPFFIVETLCIIWFSFEFLVRFFACPSKAGFFTNIMNIIDIVAIIPYYVTIFLTESNKSVLQFQNVRRVVQIFRIMRILRIFKLSRHSKGLQILGQTLKASMRELGLLIFFLFIGVILFSSAVYFAEADERDSQFPSIPDAFWWAVVSMTTVGYGDMVPTTIGGKIVGSLCAIAGVLTIALPVPVIVSNFNYFYHRETEGEEQAQYLQVTSCPKIPSSPDLKKSRSASTISKSDYMEIQEGVNNSNEDFREENLKTANCTLANTNYVNITKMLTDV

Assays:
[1] = target: Kv channel auxiliary β subunit (rat) (UniProt P62483); experiment: cryo-EM structure; Kv chimera α4β4 complex in MSP1E3D1 lipid nanodiscs (3:1:1 POPC:POPG:POPE); 0.7 mg/ml in 20 mM HEPES-KOH pH 7.5, 150 mM KCl, 2 mM TCEP; gold grids; C4 symmetry imposed
[2] = target: Kv channel auxiliary β subunit (rat) (UniProt P62483); experiment: negative staining electron microscopy; Kv chimera in lipid nanodiscs diluted to ~0.03 mg/ml, 0.7% uranyl formate; 2D class averages
[3] = target: the molecule itself; experiment: cryo-EM structure; Kv chimera α4β4 complex in MSP1E3D1 lipid nanodiscs (3:1:1 POPC:POPG:POPE); 0.7 mg/ml in 20 mM HEPES-KOH pH 7.5, 150 mM KCl, 2 mM TCEP; gold grids; C4 symmetry imposed

Molecule | stoichiometry N [1] | stoichiometry N [2] | stoichiometry N [3]
Kv channel auxiliary β subunit (from UniProt P62483 36-367) (natural protein) | 4 | 4 | –
B1 | – | – | 4
